The subject of data set [1] is TALE1 synthetic transcription factor (TAL DNA-binding domain targeting ZmWUS promoter + activation domain) (synthetic (Xanthomonas TAL effector)?). The data set can be described thus: cell_activity. Particulars: endogenous WUS mRNA by qRT-PCR in maize protoplasts, 24 h.
For data set [2], the system named is TALE5 synthetic transcription factor (TAL DNA-binding domain targeting ZmBBM promoter + activation domain) (synthetic (Xanthomonas TAL effector)?). The data set can be described thus: cell_activity. The note with it: endogenous BBM mRNA by qRT-PCR in maize protoplasts, 24 h; text p298 cites SEQ ID NO: 218 but FIG. 3 legend assigns TALE4-6 to SEQ 270-272.

With “TCCCGCTCTCGCTCTCTGC (double strand) [TALE1 target site in ZmWUS promoter]”, the activity (fold induction) in data set [1] was determined as 60.
With “TCCTCGAATCATTCTAAGAAGAAAC (double strand) [TALE5 target site in ZmBBM promoter]”, the activity (fold induction) in data set [2] was 490.

The values above are taken from patent US20200332307.
